Test results reported in PMC7305185.
Values joined by “and” are separate entries in the source; they are usually repeats but may differ in a detail not shown here. Identical values can stand only once.

Molecular target: His32 (UniProt position 32, AAQLPHDYCTT)
Assay: NMR
Settings: 20 °C; McIlvaine (phosphate-citrate) buffer with 2 mM DTT; Apo five-phospho 4E-BP2. The folded β-domain is populated at neutral pH and undergoes non-cooperative acid denaturation as pH is lowered.

Eukaryotic translation initiation factor 4E-binding protein 2 (4E-BP2), five-phospho form (5p-4E-BP2) (Homo sapiens (inferred; species of the construct not explicitly stated))
pKa: 6.0 ± 0.2 and 5.9 ± 0.1 and 6.0 ± 0.3
